Biological target: CeHsc70-Δ512 (lidless CeHsc70) (C. elegans), P09446
Sequence (P09446 1-512, stated change not applied): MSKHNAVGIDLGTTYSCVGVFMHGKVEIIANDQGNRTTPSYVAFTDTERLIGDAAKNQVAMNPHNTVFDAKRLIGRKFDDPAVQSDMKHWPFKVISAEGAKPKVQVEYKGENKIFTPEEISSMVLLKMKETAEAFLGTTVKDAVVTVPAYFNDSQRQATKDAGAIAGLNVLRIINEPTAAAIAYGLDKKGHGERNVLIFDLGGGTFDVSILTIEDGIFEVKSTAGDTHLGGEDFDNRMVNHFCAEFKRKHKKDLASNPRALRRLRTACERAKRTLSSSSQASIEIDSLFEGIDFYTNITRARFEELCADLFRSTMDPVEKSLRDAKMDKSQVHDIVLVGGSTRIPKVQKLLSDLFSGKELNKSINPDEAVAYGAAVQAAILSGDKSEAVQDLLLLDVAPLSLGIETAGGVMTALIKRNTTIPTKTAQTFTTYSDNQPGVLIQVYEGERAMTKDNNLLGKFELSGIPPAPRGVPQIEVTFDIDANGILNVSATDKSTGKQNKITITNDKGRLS

apparent KD of BAG-1 from titration of the steady-state ATPase activity, standard buffer, 25°C: 6.5 µM
B1: BAG-1 (C. elegans, unlabelled), O44739 1-210 (natural protein)
chain: MKVNVSCSSVQTTIDILEENQGEDESILTLGQLRDRIATDNDVDVETMKLLHRGKFLQGADDVSLSTLNFKENDKIIVMGGKNALVDDAGFKMLMQYEKHNLSNLQKAYDLNLRDVADLERGFLEKPKQVEMGKKLEKKVKYFNEEAERHLETLDGMNIITETTPENQAKRNREKRKTLVNGIQTLLNQNDALLRRLQEYQSVLNGDIPE

From article PMC3315512
